What all share (assay): EMSA
(Mobility shift assays separate free from complexed probe on a gel.)

The target in one data set is T1, MBD1 CXXC3 (UniProt Q9UIS9-5 252-344).
T1 sequence: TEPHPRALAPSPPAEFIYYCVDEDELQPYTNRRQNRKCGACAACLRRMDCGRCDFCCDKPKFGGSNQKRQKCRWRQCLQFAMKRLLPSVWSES

In data set [1] the target is T2, GST-MBD1 MBD (1-161) (UniProt Q9UIS9 1-161).
T2 sequence: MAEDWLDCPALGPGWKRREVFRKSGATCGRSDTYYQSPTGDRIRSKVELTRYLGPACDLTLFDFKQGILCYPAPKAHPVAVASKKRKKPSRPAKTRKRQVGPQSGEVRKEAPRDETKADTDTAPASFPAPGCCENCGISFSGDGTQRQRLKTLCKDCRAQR

Data set [2] has as its target T2, GST-MBD1 MBD (1-161). The source holds these as a separate data set.
The target of data set [3] is T2, GST-MBD1 MBD (1-161). The source holds these as a separate data set.
In data set [4] the target is T2, GST-MBD1 MBD (1-161). This is another data set of the same source.
Data set [5] deals with T2, GST-MBD1 MBD (1-161). This is another data set of the same source.

We go through twelve molecules from PMC2919722.

Substitutions are numbered along the chain they refer to. Like-named read-outs stand apart in the source and are kept apart here.

B1: CCGG, unmethylated (dsDNA)
DNA 1: ACATGCCTCATGCCGGACTTAACTGCAGCT
DNA 2: AGCTGCAGTTAAGTCCGGCATGAGGCATGT
Take B1: the binding result with MBD1 CXXC3 is recorded as “binds”.

B2: ACGG, unmethylated (dsDNA)
DNA 1: B1 DNA 1 with C13A
DNA 2: B1 DNA 2 with G18T
Take B2: in the data set with MBD1 CXXC3, the binding result is “binds”.

B3: CCGC, unmethylated (dsDNA)
DNA 1: B1 DNA 1 with G16C
DNA 2: B1 DNA 2 with C15G
Consider B3, for which, in the data set with MBD1 CXXC3, the binding result is “binds”.

B4: TmCGG, methylated (dsDNA)
DNA 1: B1 DNA 1 with C13T
DNA 2: B1 DNA 2 with G18A
modifications: 5mC at CpG, both strands (implied)
Regarding B4, in the data set with GST-MBD1 MBD (1-161) [1], the binding result is recorded as “binds”.

B5: TCGG, unmethylated (dsDNA)
DNA 1: B1 DNA 1 with C13T
DNA 2: B1 DNA 2 with G18A
For B5, the binding result in the data set with MBD1 CXXC3 is “binds”.

B6: TGmCGCA, methylated (dsDNA)
DNA 1: B1 DNA 1 with G12T, C13G, G16C
DNA 2: B1 DNA 2 with C15G, G18C, C19A
modifications: 5mC at CpG, both strands (implied)
As for B6, the binding result in the data set with GST-MBD1 MBD (1-161) [2] was “binds”.

B7: CCGT, unmethylated (dsDNA)
DNA 1: B1 DNA 1 with G16T
DNA 2: B1 DNA 2 with C15A
B7: the binding result in the data set with MBD1 CXXC3 is on record as “binds”.

B8: CCGA, unmethylated (dsDNA)
DNA 1: B1 DNA 1 with G16A
DNA 2: B1 DNA 2 with C15T
Turning to B8, the binding result with MBD1 CXXC3 is reported as “binds”.

B9: TTmCGCA, methylated (dsDNA)
DNA 1: B1 DNA 1 with G12T, C13T, G16C
DNA 2: B1 DNA 2 with C15G, G18A, C19A
modifications: 5mC at CpG, both strands (implied)
Regarding B9, the binding result with GST-MBD1 MBD (1-161) [3] was “binds”.

B10: A/T run mutated, methylated (dsDNA)
DNA 1: B1 DNA 1 with T20C, A21G
DNA 2: B1 DNA 2 with T10C, A11G
modifications: 5mC at C14 and opposite strand CpG (implied)
On to B10, for which the binding result in the data set with GST-MBD1 MBD (1-161) [4] is “binds”.

B11: CmCGC, methylated (dsDNA)
DNA 1: B1 DNA 1 with G16C
DNA 2: B1 DNA 2 with C15G
modifications: 5mC at CpG, both strands (implied)
For the molecule B11, the binding result with GST-MBD1 MBD (1-161) [5] is on record as “binds”.

B12: GCGG, unmethylated (dsDNA)
DNA 1: B1 DNA 1 with C13G
DNA 2: B1 DNA 2 with G18C
On to B12, for which the binding result in the data set with MBD1 CXXC3 is reported as “binds”.
